From publication PMC3891622, “The Sphingolipid Receptor S1PR2 Is a Receptor for Nogo-A Repressing Synaptic Plasticity” (PLoS Biology, 2014)

T1: Fluorescently labeled recombinant Nogo-A-Δ20 (rat aa544-725) (rat, UniProt Q9JK11-1 544-725, fluorescent label (Amine Reactive Protein labeling kit RED, L001, Nano Temper technologies))
T1 construct: Nogo-A (Rtn4), rat, residues 544-725 (Nogo-A-Δ20 domain); not shown: T7 or HA (His-/T7- or His-/HA-tagged)
T1 sequence (looked up): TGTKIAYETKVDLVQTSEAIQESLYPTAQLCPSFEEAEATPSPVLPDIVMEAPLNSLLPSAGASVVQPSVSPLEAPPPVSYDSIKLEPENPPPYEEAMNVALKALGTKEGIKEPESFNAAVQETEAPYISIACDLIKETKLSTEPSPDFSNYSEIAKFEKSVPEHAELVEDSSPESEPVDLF

T2: Fluorescently labeled recombinant Nogo-A-Δ20 (rat aa544-725) (rat), Q9JK11
T2 chain: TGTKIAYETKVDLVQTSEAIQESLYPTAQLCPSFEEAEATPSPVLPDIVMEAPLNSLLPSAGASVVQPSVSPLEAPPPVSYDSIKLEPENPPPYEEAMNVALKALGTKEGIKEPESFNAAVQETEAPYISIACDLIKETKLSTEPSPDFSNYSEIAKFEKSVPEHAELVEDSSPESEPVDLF


What was measured:
[1] = target: T1, Fluorescently labeled recombinant …; assay: MST; Monolith NT.115; fluorescently labeled Nogo-A-Δ20 constant (~40 nM), peptides serially diluted; PBS with 0.025% Tween-20, pH 7.4; LED 60%, IR laser 20%; non-linear regression with Hill coefficient 1.0; conditions: both partners purified
[2] = target: T2, Fluorescently labeled recombinant …; assay: as above; conditions: remark: other sources report otherwise

Binder | Kd [1] | Kd [2]
LSGHVTLSLTPVQW (Extracellular loop 1 of S1PR2; also called ECL1; source: synthetic peptide (JPT Peptide Technologies)) [S1PR2 extracellular loop 1 peptide] | ~1700 nM | 
SILLLDSTCPVRACPVLYK (here or on the partner: fluorescent label (Amine Reactive Protein labeling kit RED, L001, Nano Temper technologies)) [S1PR2 extracellular loop 3 peptide] |  | 350 nM
MGGLYSEYLNPEKVQEHYNYTKETLDMQETPSRK (Extracellular N-terminus of S1PR2; source: synthetic peptide (JPT Peptide Technologies)) [S1PR2 N-terminus peptide] | ~11000 nM | 
NCLNQLEACSTVLPLYAKHYVL (here or on the partner: fluorescent label (Amine Reactive Protein labeling kit RED, L001, Nano Temper technologies)) [S1PR2 extracellular loop 2 peptide] |  | 280 nM
